From IntAct's records for PubMed 22483987

B1: Glutamate receptor ionotropic, kainate 2 (Rattus norvegicus (Rat)), P42260 (parent)
chain: MKIISPVLSNLVFSRSIKVLLCLLWIGYSQGTTHVLRFGGIFEYVESGPMGAEELAFRFAVNTINRNRTLLPNTTLTYDTQKINLYDSFEASKKACDQLSLGVAAIFGPSHSSSANAVQSICNALGVPHIQTRWKHQVSDNKDSFYVSLYPDFSSLSRAILDLVQFFKWKTVTVVYDDSTGLIRLQELIKAPSRYNLRLKIRQLPADTKDAKPLLKEMKRGKEFHVIFDCSHEMAAGILKQALAMGMMTEYYHYIFTTLDLFALDVEPYRYSGVNMTGFRILNTENTQVSSIIEKWSMERLQAPPKPDSGLLDGFMTTDAALMYDAVHVVSVAVQQFPQMTVSSLQCNRHKPWRFGTRFMSLIKEAHWEGLTGRITFNKTNGLRTDFDLDVISLKEEGLEKIGTWDPASGLNMTESQKGKPANITDSLSNRSLIVTTILEEPYVLFKKSDKPLYGNDRFEGYCIDLLRELSTILGFTYEIRLVEDGKYGAQDDVNGQWNGMVRELIDHKADLAVAPLAITYVREKVIDFSKPFMTLGISILYRKPNGTNPGVFSFLNPLSPDIWMYILLAYLGVSCVLFVIARFSPYEWYNPHPCNPDSDVVENNFTLLNSFWFGVGALMQQGSELMPKALSTRIVGGIWWFFTLIIISSYTANLAAFLTVERMESPIDSADDLAKQTKIEYGAVEDGATMTFFKKSKISTYDKMWAFMSSRRQSVLVKSNEEGIQRVLTSDYAFLMESTTIEFVTQRNCNLTQIGGLIDSKGYGVGTPMGSPYRDKITIAILQLQEEGKLHMMKEKWWRGNGCPEEESKEASALGVQNIGGIFIVLAAGLVLSVFVAVGEFLYKSKKNAQLEKRSFCSAMVEELRMSLKCQRRLKHKPQAPVIVKTEEVINMHTFNDRRLPGKETMA

Variants of: B1
Conditions: with MAP3K11, Q16584
MAP3K11, Q16584, sequence (Q16584 whole entry, looked up): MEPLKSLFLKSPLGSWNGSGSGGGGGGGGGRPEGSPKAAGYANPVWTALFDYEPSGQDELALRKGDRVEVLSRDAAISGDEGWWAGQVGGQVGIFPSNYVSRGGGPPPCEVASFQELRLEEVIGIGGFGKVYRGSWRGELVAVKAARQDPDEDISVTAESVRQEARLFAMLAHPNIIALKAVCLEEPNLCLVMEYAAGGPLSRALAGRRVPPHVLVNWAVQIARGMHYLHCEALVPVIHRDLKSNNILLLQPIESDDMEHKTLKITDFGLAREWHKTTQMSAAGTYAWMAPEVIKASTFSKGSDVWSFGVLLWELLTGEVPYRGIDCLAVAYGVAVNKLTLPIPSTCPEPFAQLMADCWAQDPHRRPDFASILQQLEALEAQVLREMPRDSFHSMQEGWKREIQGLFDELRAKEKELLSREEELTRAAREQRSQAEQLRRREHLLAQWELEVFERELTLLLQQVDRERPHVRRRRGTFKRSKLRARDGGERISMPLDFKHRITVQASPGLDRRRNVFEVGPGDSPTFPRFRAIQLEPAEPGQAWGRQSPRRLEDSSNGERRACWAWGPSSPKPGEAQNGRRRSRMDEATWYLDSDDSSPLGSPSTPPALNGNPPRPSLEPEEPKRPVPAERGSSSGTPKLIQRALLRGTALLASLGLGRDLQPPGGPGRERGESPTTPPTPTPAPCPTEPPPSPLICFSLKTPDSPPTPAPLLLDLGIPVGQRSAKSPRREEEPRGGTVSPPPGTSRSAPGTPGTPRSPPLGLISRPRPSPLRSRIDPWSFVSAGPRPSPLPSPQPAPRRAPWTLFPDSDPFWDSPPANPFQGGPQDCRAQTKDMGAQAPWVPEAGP

Row | effect of a mutation on the interaction | Variant
1 | decreasing interaction | K886R
